Measured values taken from the supplement of paper PMC12042874.
± gives the uncertainty stated by the source.

Assay: amyloid nucleation score (Sup35N fusion, yeast selection) (log enrichment); library NNK1; higher = more nucleation; inactive = no reads after selection
Method in brief: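 Sup35N fusions to peptides of 20 random codons were expressed in psi-negative yeast, induced 24 hours with 100 μM copper sulfate, and grown 7 days at 30°C on medium lacking adenine and uracil. Input and output plasmid inserts were sequenced by Illumina. The nucleation score is the DiMSum log enrichment of output over input reads, centred on the mode score of non-aggregating sequences. Sequences with under 100 input reads were excluded.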

Substance | amyloid nucleation score
ISGIECQYTNGRRWGPPS | -0.323 ± 0.81
PRSMRKNSYGLGSGVRDHVQ | -0.238 ± 0.56
WGKYSD | 0.343 ± 0.7
KSFSIYTVIVV | 1.2 ± 0.26
WTYRQLKSAGKEHVYFLKVR | -0.031 ± 1.2
LELLMVKILSSLYDIMIFCC | inactive
GYACTFVLA | 0.136 ± 0.51
ADARVQGLSRLWGSGFNRLP | 0.53 ± 0.51
WEGLQLLGS | -0.138 ± 0.91
LTLALESLEPIRLTRNMWAL | -0.411 ± 0.65
RVVPGGRLRYVNMVF | 1.26 ± 0.67
LNCLFLFSISAFRVLASHIM | 0.448 ± 0.42
CFCFKPSVKE | -1.71 ± 2.4
VVFRGAVREVQGSWESCILA | 0.676 ± 0.52
RFGTY | -0.067 ± 0.94
CCPDSQIIRYNIYAVVYLRM | 1.92 ± 0.57
GSEFQVLSFF | 0.419 ± 0.58
TVFFDYDDIYLVNSVFRSAV | -0.113 ± 0.44
ILNGFTRYLR | -0.12 ± 0.36
LKHDRSNR | 0.345 ± 1.2
GRFFVHEVGMFQTSGQ | -0.187 ± 1.3
VVLGLWV | inactive
SYTRPILIWSLNRFSAG | 1.26 ± 0.34
HLDCGCRTFGLTWYWTKDCV | -0.143 ± 0.49

Substance | amyloid nucleation score
NPHCVSLKTRIPFVGGSKCG | -0.748 ± 1.2
GLKMFKMCLCNMALDIF | 7.428 ± 0.073
QLRGWQYSKATREVDSREDR | 0.646 ± 0.79
QIKVTGRRSSDEGSQGGWLL | 3.82 ± 0.081
MQVVVYKYLTMYQR | 1.29 ± 0.76
SSGFYLWCALYRSRGHCNDY | 1.6 ± 0.18
PIHPRTLMG | 0.117 ± 0.59
MLGCVGSCTR | -1.08 ± 1.1
ITYIGWQGSNLYWLFTTTLV | -1.12 ± 1.9
TWRNNLKWHMYTYLLPAHIG | -0.42 ± 0.46
DKRNVASYDSMCQLLAILFN | 0.512 ± 0.34
DPEVIGLIVCNM | -1.16 ± 1
CFPRSRRRQRSFNLCVRESR | 1.13 ± 0.57
RHFLFLLWARPTTCSIFMVG | -0.454 ± 0.77
PVLPDDLNARREYSGCIKYL | 0.765 ± 0.55
DRYCGYWNGTSSCMICGRVV | 1.1 ± 0.69
AKMRMNNSFFFTVNWVLMNW | -0.461 ± 0.4
NVVWAYSMAFMTSAFSVNYP | inactive
MMPVRWHMFDAWDLWIDLER | -0.456 ± 0.88
RESDFYTLDLRQVMISAEPL | 0.158 ± 0.36
FTKGNYCSGLLGSSSRWTPF | 0.926 ± 0.74
SSKLDVCEFADDGQLVFGVG | -0.394 ± 0.61
VQFLIKPDLMTG | inactive
FSFGIVSVMGYVLYRRRPWA | 1.08 ± 0.63

Substance | amyloid nucleation score
SIYYKARSEWSMASAIDGYV | 0.85 ± 0.72
SQCELWGCSCTPYNRMFSGN | inactive
FWLLS | -0.153 ± 1
SRTVFGCEDIRERRWVFWEI | 0.647 ± 0.69
LTFNPLTGCNNSQWFDGISG | -1.23 ± 2.1
QDFNNEFFFSCRAAAKTTNA | -1.54 ± 1.7
PFVRVLTLGYAGVWNGRGKP | 0.904 ± 0.57
NYAARPHSRSLLGAYDCSWS | 0.731 ± 0.47
MCGQLV | -0.447 ± 0.74
TRKLFTFMLDRMYLMVGRRL | -0.294 ± 0.6
FQNELCKTDIWFRVREWESE | 0.196 ± 1.2
YESCRVHVSIIYPPASGHRA | 2.9 ± 0.12
GLLNTYS | 0.626 ± 1.2
LAFMYVGKYARRGLTIYNLI | -0.335 ± 0.54
AYNLLYN | 1.59 ± 0.69
DGRRLNLIWLYRIFWN | -0.767 ± 0.37
TKHRELVLPGLVFTTEYCLV | -0.693 ± 1.6
HMRTNKVFPCYPWPFTYTPP | inactive
MGCLN | 0.082 ± 0.62
EVIIIGRSIIVLGMGGTKFW | 1.72 ± 0.24
TWVMFDVWGRVDYER | 0.169 ± 0.4
TWGRVFSLMAPFISRPCFWG | -0.385 ± 0.34
